26 sequences from the Immune Epitope Database (IEDB) can be followed below.

Assay [1] has as its target HLA-B*58:01. Nature of the assay: IEDB peptide-MHC binding, purified MHC/direct/fluorescence; filed as Kd, often an IC50 or EC50 that approximates it; ≥ and ≤ were set here for values at or beyond the usual limits of such assays. The following applies: source organism: Yersinia pestis.
Assay [2] has as its target HLA-A*01:01. The description is as above. The following applies: source organism: Yersinia pestis.
Assay [3] concerns the target HLA-A*11:01. Described as above. The following applies: source organism: Yersinia pestis.
Assay [4] addresses HLA-A*02:01. The description is as above. As to conditions: source organism: Yersinia pestis.
The target of assay [5] is HLA-A*03:01. Described as above. As to conditions: source organism: Yersinia pestis.
The target of assay [6] is HLA-B*07:02. The assay is described as above. The following applies: source organism: Yersinia pestis.
Assay [7] concerns the target HLA-A*69:01. The description is as above. As to conditions: source organism: Yersinia pestis.
Assay [8] has as its target HLA-A*24:03. The description is as above.
The target of assay [9] is HLA-B*15:01. The assay is described as above. As to conditions: source organism: Yersinia pestis.
The target in assay [10] is HLA-A*26:01. The assay is described as above. As to conditions: source organism: Yersinia pestis.
For assay [11], the target named is HLA-B*27:05. The assay is described as above. The following applies: source organism: Yersinia pestis.
Assay [12] deals with HLA-B*40:01. The assay is described as above. The following applies: source organism: Yersinia pestis.
Assay [13] concerns the target HLA-B*08:01. The description is as above. As to conditions: source organism: Yersinia pestis.
Assay [14] deals with HLA-A*31:01. Described as above. As to conditions: source organism: Yersinia pestis.
Assay [15] has as its target HLA-B*53:01. Kind of assay: IEDB peptide-MHC binding, purified MHC/competitive/radioactivity; filed as Kd, often an IC50 or EC50 that approximates it; ≥ and ≤ were set here for values at or beyond the usual limits of such assays.
In assay [16] the target is HLA-B*15:03. The description is as above.
Assay [17] has as its target HLA-B*51:01. Nature of the assay: IEDB peptide-MHC binding, purified MHC/competitive/fluorescence; filed as Kd, often an IC50 or EC50 that approximates it; ≥ and ≤ were set here for values at or beyond the usual limits of such assays.
Assay [18] deals with HLA-A*30:02. Kind of assay: IEDB peptide-MHC binding, purified MHC/competitive/radioactivity; filed as Kd, often an IC50 or EC50 that approximates it; ≥ and ≤ were set here for values at or beyond the usual limits of such assays. As to conditions: source organism: Dengue virus 4 Philippines/H241/1956.
Assay [19] concerns the target HLA-B*15:01. The assay is described as above. The following applies: source organism: Dengue virus 4 Philippines/H241/1956.
Assay [20] has as its target HLA-B*07:02. The description is as above.
The target in assay [21] is HLA-B*51:01. The description is as above.
In assay [22] the target is HLA-B*35:01. The description is as above.
Assay [23] has as its target HLA-B*15:01. Nature of the assay: IEDB peptide-MHC binding, purified MHC/competitive/fluorescence; filed as Kd, often an IC50 or EC50 that approximates it; ≥ and ≤ were set here for values at or beyond the usual limits of such assays.
For assay [24], the target named is HLA-A*01:01. Nature of the assay: IEDB peptide-MHC binding, purified MHC/competitive/radioactivity; filed as Kd, often an IC50 or EC50 that approximates it; ≥ and ≤ were set here for values at or beyond the usual limits of such assays. The following applies: source organism: Dengue virus 1 Brazil/97-11/1997.
For assay [25], the target named is HLA-B*08:01. The description is as above.
For assay [26], the target named is HLA-B*44:03. The description is as above. The following applies: source organism: Dengue virus 4 Philippines/H241/1956.
Assay [27] has as its target HLA-B*44:02. The assay is described as above. The following applies: source organism: Dengue virus 4 Philippines/H241/1956.
The target in assay [28] is HLA-B*40:01. The description is as above. The following applies: source organism: Dengue virus 4 Philippines/H241/1956.
Setting [29] is: source organism: Yersinia pestis.
The mark [30] stands for this setting: source organism: Vaccinia virus Copenhagen.
[31] abbreviates: source organism: Vaccinia virus WR.
[32] abbreviates: source organism: Dengue virus 4 Philippines/H241/1956.
[33] abbreviates: source organism: Dengue virus 1 Brazil/97-11/1997.
The mark [34] stands for this setting: source organism: Dengue virus 3 Martinique/1243/1999.
The mark [35] stands for this setting: source organism: Dengue virus 2 Jamaica/1409/1983.

Usually Kd stands for the free concentration of one partner at which half of the binding sites on the other are occupied at equilibrium, for simple one-to-one binding. As for LTDEDKQNQ, the Kd in [1], in [2], in [3], in assay [4], in [5] and in assay [6] was at least 20000 nM in each case. Besides, the Kd in assay [7], in assay [8] (setting [29]), in assay [9], in assay [10], in [11] and in assay [12] was at least 20000 nM in each case. In addition, the Kd in assay [13] and in assay [14] was at least 20000 nM in each case.

Consider LSIPATLFVW, for which the Kd in assay [15] (source organism: Dengue virus 1 Singapore/S275/1990) was 92.8 nM.

In turn, RYGWSGAVF gave a Kd in assay [8] (source organism: Shigella sonnei Ss046) of at most 1 nM.

SDTRSVNSF: the Kd in assay [16] (setting [30]) amounted to 92.7 nM.

In the case of FARDNQISF, the Kd in assay [16] (setting [31]) amounted to 0.195 nM.

MQYVPAWIV had a Kd in assay [17] (source organism: Bacillus cereus 95/8201) of at least 20000 nM.

As to RAKGSRAIWY, the results for the Kd in assay [18] and in assay [19] were 77 nM and 36.1 nM, respectively.

Regarding IFVIDNVHTW, in assay [15] (setting [32]), the Kd amounted to 500 nM.

LSYGPAFIV showed a dissociation constant (Kd) in assay [17] (source organism: Entamoeba histolytica HM-1:IMSS) of at least 20000 nM.

Take EPHWIAASI: the figures for the Kd in assay [20] (setting [33]), in assay [15] (setting [33]) and in assay [21] (setting [33]) were 267 nM, 333 nM and 172 nM, respectively.

Consider LPDYGELTL, for which the Kd in assay [20] (setting [32]) amounted to 67.8 nM; in [15] (setting [32]) it was 77.1 nM; in assay [22] (setting [32]), 100 nM; in [21] (setting [32]), 1230 nM.

Turning to RSRWSRKMLM, the Kd in assay [20] (setting [33]) turned out to be 154 nM.

In [23] (setting [29]), LEVNNPTPF came in with a Kd of 98 nM.

In the case of NATDTWVTY, the Kd came to 144 nM in assay [24] and 20.9 nM in assay [22] (setting [33]).

For FFPMVTDAW, the Kd in [8] (source organism: Vibrio parahaemolyticus) is at most 1 nM.

Regarding LPPEKCDTLL, the Kd was 5980 nM in assay [22] (setting [34]) and 707 nM in [25] (setting [34]).

With RPTPTGTVM, the dissociation constant Kd in [20] (setting [34]) is 1.98 nM; in [22] (setting [34]), 1430 nM.

Regarding LLVQRVTSV, the Kd in assay [16] (setting [30]) turned out to be 285 nM.

Turning to TEIASLPTYL, the results for the Kd in assay [26], in [27] and in [28] were 222 nM, 34.7 nM and 15 nM, respectively.

In the case of TQGYFPDWQNY, the Kd in [23] (source organism: Human immunodeficiency virus 1) worked out at 84.6 nM.

As for KKNNRVLCF, the Kd in assay [16] (setting [31]) was 1.59 nM.

As for GPLKLFMAL, the Kd was 2.35 nM in assay [20] (setting [35]), 1010 nM in assay [15] (setting [35]), 19.3 nM in assay [25] (setting [35]) and at least 77400 nM in [21] (setting [35]).

Regarding SPGYVLGVF, the Kd in [20] (source organism: Dengue virus 4 Dominica/814669/1981) came to 8.71 nM.

Regarding SPGTSGSPII, the Kd in [20] (source organism: Dengue virus 2 16681-PDK53) is 132 nM.

With FLVIAINAM, in assay [16] (setting [31]), the Kd came out at 440 nM.

With PPVNDLKYSW, the Kd in assay [15] (setting [32]) worked out at 96.8 nM.
